According to paper PMC11980593:

Molecular target: hexahistidine-tagged VapD toxin from Campylobacter jejuni (VapD^Cje) (Campylobacter jejuni)
Assay: crystal structure; co-expressed and co-purified VapD-VapW complex; sitting drop at 20°C, 20% PEG 1000, 100 mM sodium phosphate dibasic/citric acid pH 4.2, 200 mM lithium sulfate; space group C 2 2 21; 1.95 Å

strep-tagged VapW antitoxin from Campylobacter jejuni (VapW^Cje) (natural protein)
stoichiometry N (VapD per VapW (2:2)): 1
